We go through four molecules from publication PMC3949306.

Usually Kd stands for a measure of binding affinity in units of concentration. One may read the koff as the first-order rate constant of dissociation.

Assay [1] addresses PP2A-B55α heterotrimer (not stated | human (endogenous in HEK293)) (UniProt P63151).
Assay [2] addresses PP2A-B55 heterotrimer (B55 isoform not named for the experiment) (not stated | human (endogenous in HEK293)) (UniProt P63151). As to the kind of experiment: inhibition of phosphatase activity, IC50 converted to Kd; PP2A-B55 at 0.125 nM, radioactive CDKS substrate at 5 μM, varying thiophosphorylated Endos; Kd calculated from the IC50 according to the equation of Sasaki et al. (1994) and Takai et al. (1995).

Assay [3] has the same target.
For assay [4] the target is unchanged. The source holds these as a separate data set.
For assay [5] the target is unchanged. Nature of the assay: rate constants calculated from constants of phosphatase activity assays; kon and koff determined from the experimentally measured Kd (for thiophosphorylated Endos) and kcat; used for the theoretical time-course of Figure 10A.

Sequence of UniProt P63151 (P63151 whole entry, chain 1 of 3, canonical isoform): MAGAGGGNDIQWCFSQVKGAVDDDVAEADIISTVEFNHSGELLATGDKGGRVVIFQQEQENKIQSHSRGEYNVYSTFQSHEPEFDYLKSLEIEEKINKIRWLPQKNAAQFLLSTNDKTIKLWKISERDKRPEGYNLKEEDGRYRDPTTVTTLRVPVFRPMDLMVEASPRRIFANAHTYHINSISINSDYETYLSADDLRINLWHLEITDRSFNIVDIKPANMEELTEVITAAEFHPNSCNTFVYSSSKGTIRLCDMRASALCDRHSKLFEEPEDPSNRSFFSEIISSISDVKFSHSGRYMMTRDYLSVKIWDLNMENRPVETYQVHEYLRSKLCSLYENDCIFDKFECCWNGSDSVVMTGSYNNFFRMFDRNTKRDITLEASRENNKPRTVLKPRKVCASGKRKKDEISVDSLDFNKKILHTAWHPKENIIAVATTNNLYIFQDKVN
Sequence of UniProt P63151 (P30153 whole entry, chain 2 of 3, further chain, canonical isoform): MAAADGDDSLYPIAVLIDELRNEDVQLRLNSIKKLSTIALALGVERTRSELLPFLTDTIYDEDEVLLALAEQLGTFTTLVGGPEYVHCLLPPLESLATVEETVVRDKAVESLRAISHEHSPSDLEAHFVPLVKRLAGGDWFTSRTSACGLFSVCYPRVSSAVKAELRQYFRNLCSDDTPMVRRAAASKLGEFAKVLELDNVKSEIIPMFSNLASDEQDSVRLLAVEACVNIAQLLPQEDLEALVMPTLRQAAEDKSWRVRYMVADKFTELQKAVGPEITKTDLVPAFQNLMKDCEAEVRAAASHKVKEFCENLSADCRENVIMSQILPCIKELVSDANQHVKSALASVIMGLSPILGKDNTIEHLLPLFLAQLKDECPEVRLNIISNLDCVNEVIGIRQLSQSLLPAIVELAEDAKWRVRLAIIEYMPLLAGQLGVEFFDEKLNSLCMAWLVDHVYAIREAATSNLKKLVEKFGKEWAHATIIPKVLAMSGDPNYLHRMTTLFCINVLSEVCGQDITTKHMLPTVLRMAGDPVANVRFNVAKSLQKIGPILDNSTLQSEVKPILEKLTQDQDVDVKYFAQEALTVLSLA
Sequence of UniProt P63151 (P67775 whole entry, chain 3 of 3, further chain, canonical isoform): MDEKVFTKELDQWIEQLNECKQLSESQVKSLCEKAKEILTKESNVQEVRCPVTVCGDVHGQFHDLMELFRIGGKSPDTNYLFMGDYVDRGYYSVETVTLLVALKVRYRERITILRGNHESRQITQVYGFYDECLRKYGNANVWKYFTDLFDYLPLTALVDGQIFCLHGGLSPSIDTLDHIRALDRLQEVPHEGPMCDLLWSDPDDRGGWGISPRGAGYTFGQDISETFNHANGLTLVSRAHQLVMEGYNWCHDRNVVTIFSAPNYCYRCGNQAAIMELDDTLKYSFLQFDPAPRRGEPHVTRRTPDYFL

B1: phosphomimetic Drosophila Endos (S68D) (natural protein)
chain: MSSAEENSNSPATTPQDTETTEQANLTDLEKIEEEKLKSKYPSGMRVPGGHSAFLQKRLQKGQKFFDDGDYQMAKQKGGGVKQVFANKVTTGEAIPTPETVPARKTSIIQPCNKFPATS
In assay [1], B1 yielded an IC50 of inhibition of the anti-CDKS activity of purified PP2A-B55α (Figure 6D) of 500 nM.

B2: Xenopus Endosulfine thiophosphorylated by Gwl kinase (natural protein)
chain: MSDKYIGDSHLEETGEEKQDSQEKEAVTPEKAEEQKLKAKYPNLGQKPGGSDFLMKRLQKGQKYFDSGDYNMAKAKIKNKQLPCAGPDKNLVTGDHIPTPQDLPQRKSSLVTSKLAGHVEDLHHV
modifications: thiophosphorylated by Gwl in the presence of 1 mM ATP-[γ]-35S instead of ATP
In the case of B2, the Kd in assay [2] is 0.12 nM. The IC50 of inhibition of PP2A-B55's anti-CDKS activity (dephosphorylation of radioactive pCDKS) in assay [3] is 197 pM.

B3: unphosphorylated Xenopus Endosulfine (natural protein)
chain: MSDKYIGDSHLEETGEEKQDSQEKEAVTPEKAEEQKLKAKYPNLGQKPGGSDFLMKRLQKGQKYFDSGDYNMAKAKIKNKQLPCAGPDKNLVTGDHIPTPQDLPQRKSSLVTSKLAGHVEDLHHV
For the molecule B3, the IC50 of inhibition of PP2A-B55's anti-CDKS activity (dephosphorylation of radioactive pCDKS) in assay [3] was 566 nM.

B4: Gwl-phosphorylated Xenopus Endosulfine (pEndos) (natural protein)
chain: MSDKYIGDSHLEETGEEKQDSQEKEAVTPEKAEEQKLKAKYPNLGQKPGGSDFLMKRLQKGQKYFDSGDYNMAKAKIKNKQLPCAGPDKNLVTGDHIPTPQDLPQRKSSLVTSKLAGHVEDLHHV
modifications: phosphorylated in vitro by Gwl kinase at the Gwl site (32P-labelled or non-radioactive); between 0.5 and 1.0 phosphate per mole of protein
Consider B4, for which the Km of pEndos for PP2A-B55, best fit to the time course of pCDKS dephosphorylation with 16 nM unlabeled pEndos (Figure 8B) in assay [4] worked out at 0.47 nM. Besides, the koff in assay [5] was 0.0068 s⁻¹.
